{"source": "patent US20250276018A1", "about": "(AFFYIMMUNE THERAPEUTICS, published 2025)", "binders": {"B1": {"name": "Affy6 CAR (control) (other)", "chain": "GSEQKLISEEDLGSQVQLVQSGAEVKKPGASVKVSCKASGYIFTAYTMHWVRQAPGQGLEWMGWIKPNNGLANYAQKFQGRVTMTRDTSISTAYMELSRLRSDDTAVYYCARSEITTEFDYWGQGTLVTVSSGGGGSGGGGSGGGGSDIVLTQSPDSLAVSLGERATINCKSSESVDSYANSFMHWYQQKPGQPPKLLIYRASTRESGVPDRFSGSGSRTDFTLTISSLQAEDVAVYYCQQSKEDPLTFGGGTKVEIKASTTTPAPRPPTPAPTIASQPLSLRPEACRPAAGGAVHTRGLDFACDFWVLVVVGGVLACYSLLVTVAFIIFWVRSKRSRLLHSDYMNMTPRRPGPTRKHYQPYAPPRDFAAYRSLRVKFSRSADAPAYQQGQNQLYNELNLGRREEYDVLDKRRGRDPEMGGKPRRKNPQEGLYNELQKDKMAEAYSEIGMKGERRRGKGHDGLYQGLSTATKDTYDALHMQALPPR", "notes": "Chimeric antigen receptor on transduced human T cells; P2A remnant not included; also called parent Affy6 CAR-T cells; parental Affy6"}}, "key": {"[1]": {"target": "T1, AF647 labeled c-met protein (UniProt P08581 25-932, limits assumed, labeled with AlexaFluor 647 (AF647))", "T1 construct": "Soluble labeled c-met protein titrated on CAR-T cells", "T1 sequence (P08581 25-932 limits assumed)": "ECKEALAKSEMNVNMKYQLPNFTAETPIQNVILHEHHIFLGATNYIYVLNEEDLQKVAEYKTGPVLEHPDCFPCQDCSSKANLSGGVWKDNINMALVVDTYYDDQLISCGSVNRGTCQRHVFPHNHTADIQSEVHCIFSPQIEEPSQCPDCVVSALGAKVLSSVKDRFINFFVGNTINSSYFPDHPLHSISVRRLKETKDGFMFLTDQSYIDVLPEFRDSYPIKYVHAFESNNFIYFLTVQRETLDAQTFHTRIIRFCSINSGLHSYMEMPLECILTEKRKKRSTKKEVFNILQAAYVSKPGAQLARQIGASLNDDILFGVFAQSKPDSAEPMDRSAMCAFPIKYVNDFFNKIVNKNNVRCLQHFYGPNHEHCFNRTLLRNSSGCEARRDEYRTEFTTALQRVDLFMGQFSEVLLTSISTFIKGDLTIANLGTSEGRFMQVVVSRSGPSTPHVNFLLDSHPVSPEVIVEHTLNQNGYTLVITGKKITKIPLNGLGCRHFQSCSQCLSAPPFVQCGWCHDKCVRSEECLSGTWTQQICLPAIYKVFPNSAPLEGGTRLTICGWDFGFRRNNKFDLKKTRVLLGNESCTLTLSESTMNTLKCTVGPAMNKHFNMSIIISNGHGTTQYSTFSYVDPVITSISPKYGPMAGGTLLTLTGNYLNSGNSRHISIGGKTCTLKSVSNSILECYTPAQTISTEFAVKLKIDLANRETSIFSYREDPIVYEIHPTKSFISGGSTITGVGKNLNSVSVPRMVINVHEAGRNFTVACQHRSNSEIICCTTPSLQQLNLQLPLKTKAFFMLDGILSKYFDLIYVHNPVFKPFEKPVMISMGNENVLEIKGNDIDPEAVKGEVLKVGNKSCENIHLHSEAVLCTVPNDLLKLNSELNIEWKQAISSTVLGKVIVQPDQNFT", "assay": "flow cytometry, AF647-labeled c-met protein titrated on CAR-T cells (Round 1)", "experimental": "(§1) Binding of labeled c-MET to CAR-T cells expressing the affinity tuned c-MET scFvs was evaluated by transducing lentivirus anti-c-MET CAR particles into human T cells to form c-MET CAR-T cells incubated with AF647-labeled c-MET. […] Following a 48 hr. incubation at 37° C., the culture media was brought up to […] per well and incubated at 37° C. for 10 days.\n(§2) Cells were stained on ice for 30 mins and then washed with PBS. After washing, residually bound protein on CAR T cells were measured on a flow cytometer (Beckman, CytoFLEX®). The resulting binding data was fit using a non-linear regression analysis on GraphPad Prism to calculate half effective dose concentration (EC₅₀) values. The results of this analysis are shown in FIGS. 2-5 and Tables 2-5 below."}, "[2]": {"target": "T2, c-MET on human target cells (human, UniProt P08581 25-1390)", "T2 sequence (P08581 25-1390)": "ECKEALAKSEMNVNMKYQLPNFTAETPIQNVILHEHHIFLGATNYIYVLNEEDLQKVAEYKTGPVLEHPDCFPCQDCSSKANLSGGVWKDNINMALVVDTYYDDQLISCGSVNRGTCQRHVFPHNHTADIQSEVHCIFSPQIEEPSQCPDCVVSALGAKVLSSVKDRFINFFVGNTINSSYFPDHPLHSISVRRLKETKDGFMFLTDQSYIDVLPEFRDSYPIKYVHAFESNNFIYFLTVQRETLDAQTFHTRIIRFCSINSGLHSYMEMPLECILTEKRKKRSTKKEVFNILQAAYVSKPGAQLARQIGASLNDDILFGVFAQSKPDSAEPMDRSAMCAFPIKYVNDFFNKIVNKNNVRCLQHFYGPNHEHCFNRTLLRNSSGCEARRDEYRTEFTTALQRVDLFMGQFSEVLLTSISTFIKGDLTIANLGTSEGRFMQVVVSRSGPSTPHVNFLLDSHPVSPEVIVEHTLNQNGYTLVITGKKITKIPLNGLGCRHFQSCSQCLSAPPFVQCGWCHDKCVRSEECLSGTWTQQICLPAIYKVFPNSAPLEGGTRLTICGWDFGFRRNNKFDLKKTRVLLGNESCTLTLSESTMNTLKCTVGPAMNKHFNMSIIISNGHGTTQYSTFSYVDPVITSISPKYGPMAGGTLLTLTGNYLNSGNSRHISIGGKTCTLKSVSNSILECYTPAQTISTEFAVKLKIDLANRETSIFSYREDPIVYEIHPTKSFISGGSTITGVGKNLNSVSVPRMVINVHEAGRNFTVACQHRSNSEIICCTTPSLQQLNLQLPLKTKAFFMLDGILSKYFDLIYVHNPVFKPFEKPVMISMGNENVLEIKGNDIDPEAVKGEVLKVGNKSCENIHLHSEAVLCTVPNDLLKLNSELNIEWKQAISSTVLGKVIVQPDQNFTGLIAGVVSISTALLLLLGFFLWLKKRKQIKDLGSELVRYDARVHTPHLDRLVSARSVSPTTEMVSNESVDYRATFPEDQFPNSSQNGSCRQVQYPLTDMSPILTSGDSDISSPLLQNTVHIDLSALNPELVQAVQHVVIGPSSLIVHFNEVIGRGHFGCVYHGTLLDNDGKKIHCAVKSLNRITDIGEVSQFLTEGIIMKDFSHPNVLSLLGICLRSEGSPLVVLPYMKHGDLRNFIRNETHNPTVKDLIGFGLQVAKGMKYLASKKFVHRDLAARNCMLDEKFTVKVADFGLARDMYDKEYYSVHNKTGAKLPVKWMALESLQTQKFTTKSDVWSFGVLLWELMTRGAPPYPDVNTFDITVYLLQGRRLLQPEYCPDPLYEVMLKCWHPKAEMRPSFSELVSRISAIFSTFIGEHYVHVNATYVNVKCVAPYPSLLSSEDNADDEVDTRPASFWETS", "assay": "cell-based or functional assay"}, "[3]": {"target": "T2, c-MET on human target cells", "assay": "cell-based or functional assay", "remark": "listed apart in the source"}, "[4]": {"target": "T2, c-MET on human target cells", "assay": "cell-based or functional assay", "remark": "listed apart in the source"}, "[5]": {"target": "T2, c-MET on human target cells", "assay": "cell-based or functional assay", "remark": "listed apart in the source"}, "[6]": {"target": "T1, AF647 labeled c-met protein", "assay": "flow cytometry, AF647-labeled c-met protein titrated on CAR-T cells (Round 2)", "experimental": "as §1, §2"}}}
{"binder": "B1", "values": [{"measurement": "EC50", "setting": "[1]", "value": 20, "unit": "nM"}, {"measurement": "cytotoxicity, Normal Human Kidney Cells, 8 hrs", "setting": "[2]", "value": 25.7}, {"measurement": "cytotoxicity, Normal Human Kidney Cells, 16 hrs", "setting": "[2]", "value": 45.4}, {"measurement": "cytotoxicity, Normal Human Kidney Cells, 24 hrs", "setting": "[2]", "value": 57}, {"measurement": "cytotoxicity, Normal Human Kidney Cells, 32 hrs", "setting": "[2]", "value": 65.5}, {"measurement": "cytotoxicity, Normal Human Kidney Cells, 40 hrs", "setting": "[2]", "value": 73}, {"measurement": "cytotoxicity, Normal Human Kidney Cells, 48 hrs", "setting": "[2]", "value": 78.8}, {"measurement": "cytotoxicity, Normal Human Lung Cells, 8 hrs", "setting": "[3]", "value": 38.4}, {"measurement": "cytotoxicity, Normal Human Lung Cells, 16 hrs", "setting": "[3]", "value": 47.1}, {"measurement": "cytotoxicity, Normal Human Lung Cells, 24 hrs", "setting": "[3]", "value": 54.7}, {"measurement": "cytotoxicity, Normal Human Lung Cells, 32 hrs", "setting": "[3]", "value": 63.1}, {"measurement": "cytotoxicity, Normal Human Lung Cells, 40 hrs", "setting": "[3]", "value": 76.4}, {"measurement": "cytotoxicity, Normal Human Lung Cells, 48 hrs", "setting": "[3]", "value": 85.2}, {"measurement": "cytotoxicity, Normal Human Liver Cells, 8 hrs", "setting": "[4]", "value": 28.4}, {"measurement": "cytotoxicity, Normal Human Liver Cells, 16 hrs", "setting": "[4]", "value": 47.1}, {"measurement": "cytotoxicity, Normal Human Liver Cells, 24 hrs", "setting": "[4]", "value": 59}, {"measurement": "cytotoxicity, Normal Human Liver Cells, 32 hrs", "setting": "[4]", "value": 67.9}, {"measurement": "cytotoxicity, Normal Human Liver Cells, 40 hrs", "setting": "[4]", "value": 76.8}, {"measurement": "cytotoxicity, Normal Human Liver Cells, 48 hrs", "setting": "[4]", "value": 83.6}, {"measurement": "cytotoxicity, Normal Human Colon Cells, 8 hrs", "setting": "[5]", "value": 24.6}, {"measurement": "cytotoxicity, Normal Human Colon Cells, 16 hrs", "setting": "[5]", "value": 37.7}, {"measurement": "cytotoxicity, Normal Human Colon Cells, 24 hrs", "setting": "[5]", "value": 46.4}, {"measurement": "cytotoxicity, Normal Human Colon Cells, 32 hrs", "setting": "[5]", "value": 57.3}, {"measurement": "cytotoxicity, Normal Human Colon Cells, 40 hrs", "setting": "[5]", "value": 72.3}, {"measurement": "cytotoxicity, Normal Human Colon Cells, 48 hrs", "setting": "[5]", "value": 83.8}, {"measurement": "EC50", "setting": "[6]", "value": 20, "unit": "nM"}]}
